Measured values published in patent US20240092867A1 (UNIVERSITY OF CHICAGO, published 2024).

T1: placental growth factor (PlGF)-2 (human, UniProt P49763-3 19-170)
T1 construct: mature; Purchased in mature form
T1 sequence (looked up): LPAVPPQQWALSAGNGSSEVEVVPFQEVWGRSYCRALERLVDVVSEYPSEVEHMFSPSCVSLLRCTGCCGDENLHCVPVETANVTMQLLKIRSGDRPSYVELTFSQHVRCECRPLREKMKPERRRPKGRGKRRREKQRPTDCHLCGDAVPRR

T2: vascular endothelial growth factor (VEGF)-A121 (human, UniProt P15692-9 27-147)
T2 construct: mature; Purchased in mature form, not glycosylated
T2 sequence (looked up): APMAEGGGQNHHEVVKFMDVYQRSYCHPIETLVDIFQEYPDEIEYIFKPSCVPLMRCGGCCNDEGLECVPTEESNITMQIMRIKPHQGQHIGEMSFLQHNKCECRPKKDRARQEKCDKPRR

T3: placental growth factor (PlGF)-1 (human, UniProt P49763-2 19-149)
T3 construct: mature; Purchased in mature form
T3 sequence (looked up): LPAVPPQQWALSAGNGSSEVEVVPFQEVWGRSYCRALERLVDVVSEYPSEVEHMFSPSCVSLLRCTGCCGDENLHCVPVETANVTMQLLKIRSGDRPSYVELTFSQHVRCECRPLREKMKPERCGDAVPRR

T4: recombinant human syndecan-1 (human, UniProt P18827 23-254, limits assumed)
T4 construct: Histidine tag of unstated position and length
T4 sequence (looked up): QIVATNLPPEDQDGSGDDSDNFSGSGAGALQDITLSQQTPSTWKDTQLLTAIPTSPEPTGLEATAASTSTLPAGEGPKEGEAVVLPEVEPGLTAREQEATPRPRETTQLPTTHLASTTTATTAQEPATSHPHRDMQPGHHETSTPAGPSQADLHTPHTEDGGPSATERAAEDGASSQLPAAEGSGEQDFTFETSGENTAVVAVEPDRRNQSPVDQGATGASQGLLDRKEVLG

T5: recombinant human syndecan-4 (human, UniProt P31431 19-145, limits assumed)
T5 construct: Histidine tag of unstated position and length
T5 sequence (looked up): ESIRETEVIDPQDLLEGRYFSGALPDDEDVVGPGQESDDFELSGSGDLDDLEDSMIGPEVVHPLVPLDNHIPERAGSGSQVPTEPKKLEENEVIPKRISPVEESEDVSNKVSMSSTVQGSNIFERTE

B1: bone morphogenetic protein (BMP)-4 (ligand, UniProt P12644 293-408, looked up)
chain: SPKHHSQRARKKNKNCRRHSLYVDFSDVGWNDWIVAPPGYQAFYCHGDCPFPLADHLNSTNHAIVQTLVNSVNSSIPKACCVPTELSAISMLYLDEYDKVVLKNYQEMVVEGCGCR
notes: mature; Purchased in mature form
B2: bone morphogenetic protein (BMP)-7 (ligand, UniProt P18075 293-431, looked up)
chain: STGSKQRSQNRSKTPKNQEALRMANVAENSSSDQRQACKKHELYVSFRDLGWQDWIIAPEGYAAYYCEGECAFPLNSYMNATNHAIVQTLVHFINPETVPKPCCAPTQLNAISVLYFDDSSNVILKKYRNMVVRACGCH
notes: as for B1
B3: vWF A1 HBD R1341L (peptide)
peptide: YIGLKDRKRPSELLRIASQVKYA
notes: The entry already carries the substitution
B4: vWF A1 HBD R1341W (peptide)
peptide: YIGLKDRKRPSELWRIASQVKYA
notes: as for B3
B5: vWF A1 HBD R1341Q (peptide)
peptide: YIGLKDRKRPSELQRIASQVKYA
notes: as for B3
B6: vWF A1 HBD R1341S (peptide)
peptide: YIGLKDRKRPSELSRIASQVKYA
notes: as for B3
B7: vWF A1 HBD R1341P (peptide)
peptide: YIGLKDRKRPSELPRIASQVKYA
notes: as for B3
B8: fibroblast growth factor (FGF)-6 (ligand, UniProt P10767 38-208, looked up)
chain: SPAGTRANNTLLDSRGWGTLLSRSRAGLAGEIAGVNWESGYLVGIKRQRRLYCNVGIGFHLQVLPDGRISGTHEENPYSLLEISTVERGVVSLFGVRSALFVAMNSKGRLYATPSFQEECKFRETLLPNNYNAYESDLYQGTYIALSKYGRVKRGSKVSPIMTVTHFLPRI
notes: as for B1

Key:
[1] = biological target: T1, placental growth factor (PlGF)-2; test: ELISA, peptide coated, GF 1 µg/mL
Experimental: (§1) (A) The location of laminin-derived peptides in the LG domain of laminin α3, α4, and α5 chains. (B-F) Affinity of heparin and GFs against chemically synthesized peptides derived from the LG domain of laminin α3, α4, and α5 chains. ELISA plates were coated with 10 μg/mL laminin peptide and further incubated with (B) biotinylated heparin, (C) VEGF-A165 and VEGF-A121, (D) PlGF-2 and PlGF-1, (E) PDGF-BB, or (F) FGF-2. Concentrations were 1 μg/mL for GFs and 10 μg/mL for heparin. Bound heparin was detected with streptavidin, and bound GFs with a specific antibody for each GF (n=4, mean±SEM). Statistical analyses were done using the Mann-Whitney U test by comparing the signals obtained from the laminin peptide- and the BSA-coated wells. *p<0.05, **p<0.01.
(§2) ELISA tests were performed as described above. […] 1 μg/mL of BSA served as non-binding protein control. After blocking with 2% BSA PBS-0.05% Tween 20 (PBS-T) solution, 1 μg/mL of the recombinant human proteins (VEGF-A121, VEGF-A165, PlGF-1, PlGF-2, PDGF-BB or FGF-2) or 10 μg/mL of biotinylated heparin (Sigma-Aldrich) were added. Bound GF was detected with biotinylated antibodies for human VEGF, PlGF, PDGF-BB, or FGF-2 (R&D Systems). The antibodies were detected by streptavidin-HRP (R&D Systems).

[2] = biological target: T6, vascular endothelial growth factor (VEGF)-A165 (human, UniProt P15692-4 27-191); test: ELISA, peptide coated, GF 1 µg/mL
T6 construct: mature; Purchased in mature form, not glycosylated
Experimental: as §1, §2

[3] = biological target: T7, fibroblast growth factor (FGF)-2 (human, UniProt P09038 143-288); test: ELISA, peptide coated, GF 1 µg/mL
T7 construct: mature; Purchased in mature form
T7 sequence (P09038 143-288): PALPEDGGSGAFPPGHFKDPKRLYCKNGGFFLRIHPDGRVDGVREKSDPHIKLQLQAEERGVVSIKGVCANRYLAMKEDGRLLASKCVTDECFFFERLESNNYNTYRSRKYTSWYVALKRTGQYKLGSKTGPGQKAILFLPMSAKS
Experimental: as §1, §2

[4] = biological target: T2, vascular endothelial growth factor …; test: ELISA, peptide coated
Experimental: as §1, §2

[5] = biological target: T3, placental growth factor (PlGF)-1; test: ELISA, peptide coated
Experimental: as §1, §2

[6] = biological target: T8, recombinant human syndecan-2 (human, UniProt P34741 19-144, limits assumed); test: ELISA, peptide coated, syndecan 1 µg/mL, anti-His detection
T8 construct: Histidine tag of unstated position and length
T8 sequence (P34741 19-144 limits assumed): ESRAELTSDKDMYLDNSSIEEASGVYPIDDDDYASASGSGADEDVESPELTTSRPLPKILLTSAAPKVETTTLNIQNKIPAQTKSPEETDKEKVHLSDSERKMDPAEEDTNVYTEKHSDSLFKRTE
Experimental: (§3) ELISA tests were performed as described above. In brief, ELISA plates were coated with 1 μg/mL laminin peptide (sequences are described in Table 1, chemically synthesized by Genscript) in PBS for 2 hrs at 37° C. 1 μg/mL of BSA served as non-binding protein control. After blocking with 2% BSA PBS-T solution, 1 μg/mL of the recombinant human syndecan-1, syndecan-2, syndecan-3, syndecan-4 (all syndecan proteins are histidine-tagged; SinoBiological) were added. Bound GF was detected with anti-histidine tag antibody (1:1000 dilution, BioLegend).

[7] = biological target: T4, recombinant human syndecan-1; test: as above
Experimental: as §3

[8] = biological target: T5, recombinant human syndecan-4; test: as above
Experimental: as §3

laminin-211 = biological target: T9, laminin-211 (human, UniProt P24043 23-3122; P07942 22-1786; P11047 34-1609); test: ELISA, GF coated, laminin 10 nM
T9 construct: Full-length recombinant human laminin isoform (BioLamina); chains read from the isoform name
Experimental: (§4) ELISA tests were performed as previously reported. In brief, ELISA plates (med-binding, Greiner Bio-One) were coated with 50 nM GFs at 37° C. for more than 2 hrs. […] Bound laminin was detected with rabbit anti-human laminin γ1 chain antibody (1:1000 dilution, Assay biotech) or rabbit anti-human laminin α3 chain antibody (1:1000 dilution, Assay biotech). After incubation with biotinylated anti-rabbit antibody for 60 min at room temperature (RT), HRP conjugated streptavidin (Jackson ImmunoResearch) was added. After 60 min of incubation at RT, 50 μL TMB substrate (Sigma-Aldrich) was added. The reactions were stopped by adding 25 μL of 2 N H₂SO₄. Subsequently, the absorbance at 450 nm was measured with a reference of 570 nm.

laminin-332 = biological target: T10, laminin-332 (human, UniProt Q16787 28-1724; Q13751 18-1172; Q13753 22-1193, limits assumed); test: ELISA, GF coated, laminin 10 nM
T10 construct: Full-length recombinant human laminin isoform (BioLamina); chains read from the isoform name
T10 sequence (Q16787 other isoform, or with tags, fused parts or gaps limits assumed, chain 1 of 3): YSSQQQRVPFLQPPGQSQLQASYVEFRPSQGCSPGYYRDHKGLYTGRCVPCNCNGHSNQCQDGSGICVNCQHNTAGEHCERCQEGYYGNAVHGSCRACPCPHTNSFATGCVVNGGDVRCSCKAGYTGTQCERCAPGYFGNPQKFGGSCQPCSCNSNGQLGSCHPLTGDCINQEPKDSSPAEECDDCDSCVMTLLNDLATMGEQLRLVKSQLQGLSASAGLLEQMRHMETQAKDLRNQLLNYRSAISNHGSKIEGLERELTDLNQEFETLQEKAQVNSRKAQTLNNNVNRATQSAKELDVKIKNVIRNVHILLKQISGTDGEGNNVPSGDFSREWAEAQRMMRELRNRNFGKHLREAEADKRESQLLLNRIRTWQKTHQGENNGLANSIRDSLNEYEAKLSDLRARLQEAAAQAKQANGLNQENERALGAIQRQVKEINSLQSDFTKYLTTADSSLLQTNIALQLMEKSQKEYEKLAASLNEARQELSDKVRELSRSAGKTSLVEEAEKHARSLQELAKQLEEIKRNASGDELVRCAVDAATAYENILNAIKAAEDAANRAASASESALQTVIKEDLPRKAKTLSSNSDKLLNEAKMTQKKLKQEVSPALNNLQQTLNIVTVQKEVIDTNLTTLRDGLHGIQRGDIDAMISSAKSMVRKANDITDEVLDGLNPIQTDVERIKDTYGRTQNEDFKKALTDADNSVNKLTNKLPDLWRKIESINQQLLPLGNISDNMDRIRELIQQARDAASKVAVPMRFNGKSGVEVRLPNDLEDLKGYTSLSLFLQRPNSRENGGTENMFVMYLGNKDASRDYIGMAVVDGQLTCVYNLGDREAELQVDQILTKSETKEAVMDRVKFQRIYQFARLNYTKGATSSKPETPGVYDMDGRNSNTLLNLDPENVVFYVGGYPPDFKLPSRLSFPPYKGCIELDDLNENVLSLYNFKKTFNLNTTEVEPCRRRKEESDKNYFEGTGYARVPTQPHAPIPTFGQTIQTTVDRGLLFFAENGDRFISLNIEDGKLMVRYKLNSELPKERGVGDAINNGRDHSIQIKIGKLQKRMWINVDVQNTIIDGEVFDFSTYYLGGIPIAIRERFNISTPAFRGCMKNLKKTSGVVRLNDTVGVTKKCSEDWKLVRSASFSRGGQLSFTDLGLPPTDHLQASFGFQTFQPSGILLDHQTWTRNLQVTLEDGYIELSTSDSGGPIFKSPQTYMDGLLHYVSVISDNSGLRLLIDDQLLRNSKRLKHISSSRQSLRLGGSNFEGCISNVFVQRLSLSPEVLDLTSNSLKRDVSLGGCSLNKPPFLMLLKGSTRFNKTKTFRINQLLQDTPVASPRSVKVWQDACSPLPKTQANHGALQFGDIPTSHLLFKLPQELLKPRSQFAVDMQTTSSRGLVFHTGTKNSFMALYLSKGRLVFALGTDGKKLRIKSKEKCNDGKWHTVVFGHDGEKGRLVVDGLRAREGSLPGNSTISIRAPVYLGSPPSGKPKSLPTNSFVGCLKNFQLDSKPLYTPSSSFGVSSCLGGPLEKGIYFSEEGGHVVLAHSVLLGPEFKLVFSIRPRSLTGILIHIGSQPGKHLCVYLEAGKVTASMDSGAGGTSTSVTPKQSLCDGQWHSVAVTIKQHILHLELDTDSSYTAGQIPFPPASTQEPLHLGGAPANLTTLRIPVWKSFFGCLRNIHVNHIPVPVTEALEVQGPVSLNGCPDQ
T10 sequence (Q13751 18-1172 limits assumed, chain 2 of 3): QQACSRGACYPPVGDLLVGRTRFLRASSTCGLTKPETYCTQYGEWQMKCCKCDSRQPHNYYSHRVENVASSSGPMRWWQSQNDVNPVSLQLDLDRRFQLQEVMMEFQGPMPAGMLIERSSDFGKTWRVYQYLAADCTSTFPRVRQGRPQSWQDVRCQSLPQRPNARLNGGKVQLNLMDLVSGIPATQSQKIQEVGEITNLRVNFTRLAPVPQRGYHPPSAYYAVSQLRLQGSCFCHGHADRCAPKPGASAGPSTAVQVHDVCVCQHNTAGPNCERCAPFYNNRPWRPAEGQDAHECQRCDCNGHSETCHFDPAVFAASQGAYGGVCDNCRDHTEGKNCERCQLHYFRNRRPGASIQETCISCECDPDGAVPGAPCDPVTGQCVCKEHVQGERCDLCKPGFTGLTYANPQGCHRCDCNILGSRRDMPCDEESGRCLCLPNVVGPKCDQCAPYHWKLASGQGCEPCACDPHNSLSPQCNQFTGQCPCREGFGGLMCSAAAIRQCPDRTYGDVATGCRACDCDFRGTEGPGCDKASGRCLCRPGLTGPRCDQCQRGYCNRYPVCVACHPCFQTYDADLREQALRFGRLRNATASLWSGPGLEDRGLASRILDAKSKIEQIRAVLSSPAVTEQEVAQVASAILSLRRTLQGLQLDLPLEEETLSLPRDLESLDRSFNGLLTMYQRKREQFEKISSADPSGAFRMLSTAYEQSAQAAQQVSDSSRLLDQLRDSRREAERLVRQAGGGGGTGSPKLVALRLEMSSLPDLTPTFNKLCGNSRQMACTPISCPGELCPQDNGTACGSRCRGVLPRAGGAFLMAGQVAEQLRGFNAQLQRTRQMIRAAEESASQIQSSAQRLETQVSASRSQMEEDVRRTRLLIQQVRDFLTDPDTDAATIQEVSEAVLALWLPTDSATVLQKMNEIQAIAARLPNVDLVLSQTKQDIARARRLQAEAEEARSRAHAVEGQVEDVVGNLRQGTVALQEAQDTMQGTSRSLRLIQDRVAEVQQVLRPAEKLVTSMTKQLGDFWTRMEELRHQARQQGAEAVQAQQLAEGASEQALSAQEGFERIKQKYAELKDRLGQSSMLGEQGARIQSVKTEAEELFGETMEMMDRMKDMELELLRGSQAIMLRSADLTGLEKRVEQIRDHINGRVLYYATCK
T10 sequence (Q13753 22-1193 limits assumed, chain 3 of 3): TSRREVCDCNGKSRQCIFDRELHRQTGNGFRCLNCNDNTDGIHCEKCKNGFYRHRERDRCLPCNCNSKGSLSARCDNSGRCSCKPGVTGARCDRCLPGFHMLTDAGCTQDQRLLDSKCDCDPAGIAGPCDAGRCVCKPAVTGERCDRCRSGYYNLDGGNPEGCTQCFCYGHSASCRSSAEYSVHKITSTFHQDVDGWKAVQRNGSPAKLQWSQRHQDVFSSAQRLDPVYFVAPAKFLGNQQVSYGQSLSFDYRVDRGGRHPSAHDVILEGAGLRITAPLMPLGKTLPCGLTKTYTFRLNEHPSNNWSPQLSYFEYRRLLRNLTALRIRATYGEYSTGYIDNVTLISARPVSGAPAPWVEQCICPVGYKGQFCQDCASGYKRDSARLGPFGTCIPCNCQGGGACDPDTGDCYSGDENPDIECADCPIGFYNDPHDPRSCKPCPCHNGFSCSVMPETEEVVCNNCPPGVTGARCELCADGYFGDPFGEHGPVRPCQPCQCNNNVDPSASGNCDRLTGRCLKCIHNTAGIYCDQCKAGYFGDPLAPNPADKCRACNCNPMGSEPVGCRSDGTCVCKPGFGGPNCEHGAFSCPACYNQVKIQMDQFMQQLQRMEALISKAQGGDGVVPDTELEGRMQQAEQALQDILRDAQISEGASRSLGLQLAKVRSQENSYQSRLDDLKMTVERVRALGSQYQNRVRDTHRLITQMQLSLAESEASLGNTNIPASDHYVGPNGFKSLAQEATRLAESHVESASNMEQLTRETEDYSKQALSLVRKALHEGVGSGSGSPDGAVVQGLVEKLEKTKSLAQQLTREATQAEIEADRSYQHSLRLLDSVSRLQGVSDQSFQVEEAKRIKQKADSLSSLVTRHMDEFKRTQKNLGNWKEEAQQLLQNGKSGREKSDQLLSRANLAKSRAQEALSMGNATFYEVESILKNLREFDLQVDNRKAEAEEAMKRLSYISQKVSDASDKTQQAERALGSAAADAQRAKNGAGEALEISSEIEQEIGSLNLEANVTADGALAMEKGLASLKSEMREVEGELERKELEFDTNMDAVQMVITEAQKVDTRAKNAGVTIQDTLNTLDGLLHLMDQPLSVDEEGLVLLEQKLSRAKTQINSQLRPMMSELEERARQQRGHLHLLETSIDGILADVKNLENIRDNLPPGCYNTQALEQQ
Experimental: as §4

laminin-521 = biological target: T11, laminin-521 (human, UniProt O15230 36-3695; P55268 33-1798; P11047 34-1609); test: ELISA, GF coated, laminin 10 nM
T11 construct: Full-length recombinant human laminin isoform (BioLamina); chains read from the isoform name
Experimental: as §4

laminin-421 = biological target: T12, laminin-421 (human, UniProt Q16363 25-1823; P55268 33-1798; P11047 34-1609); test: ELISA, GF coated, laminin 10 nM
T12 construct: Full-length recombinant human laminin isoform (BioLamina); chains read from the isoform name
Experimental: as §4

laminin-411 = biological target: T13, laminin-411 (human, UniProt Q16363 25-1823; P07942 22-1786; P11047 34-1609); test: ELISA, GF coated, laminin 10 nM
T13 construct: Full-length recombinant human laminin isoform (BioLamina); chains read from the isoform name
Experimental: as §4

laminin-511 = biological target: T14, laminin-511 (human, UniProt O15230 36-3695; P07942 22-1786; P11047 34-1609); test: ELISA, GF coated, laminin 10 nM
T14 construct: Full-length recombinant human laminin isoform (BioLamina); chains read from the isoform name
Experimental: as §4

laminin-111 = biological target: T15, laminin-111 (human, UniProt P25391 18-3075; P07942 22-1786; P11047 34-1609); test: ELISA, GF coated, laminin 10 nM
T15 construct: Full-length recombinant human laminin isoform (BioLamina); Chain composition is read from the isoform name
Experimental: as §4

human plasma-derived vWF = biological target: T16, human plasma-derived vWF (human, UniProt P04275 764-2813); test: ELISA, GF coated 50 nM, vWF 1 µg/mL
T16 construct: mature; also called plasma-derived purified vWF; von Willebrand factor
Experimental: ELISA tests were performed as previously reported1. In brief, ELISA plates (med-binding, Greiner Bio-One) were coated with 50 nM GFs at 37° C. for 2 hrs. […] Then, HRP conjugated goat anti-rabbit antibody (Jackson ImmunoResearch) was added. After 60 min of incubation, 50 μL TMB substrate (Sigma-Aldrich) was added. The reaction was stopped by adding 25 μL of 2N H2SO4. Subsequently, the absorbance at 450 nm was measured and subtracted the absorbance at 570 nm.

[9] = biological target: T17, platelet-derived growth factor (PDGF)-BB (human, UniProt P01127 82-190); test: ELISA, peptide coated, GF 1 µg/mL
T17 construct: mature; Purchased in mature form
T17 sequence (P01127 82-190): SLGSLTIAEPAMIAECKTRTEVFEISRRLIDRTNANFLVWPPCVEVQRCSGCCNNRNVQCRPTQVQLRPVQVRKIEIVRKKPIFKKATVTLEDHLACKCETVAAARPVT
Experimental: as §1, §2

[10] = biological target: T6, vascular endothelial growth factor …; test: ELISA, HBD peptides
Target sequence in this assay (P15692 other isoform, or with tags, fused parts or gaps limits assumed): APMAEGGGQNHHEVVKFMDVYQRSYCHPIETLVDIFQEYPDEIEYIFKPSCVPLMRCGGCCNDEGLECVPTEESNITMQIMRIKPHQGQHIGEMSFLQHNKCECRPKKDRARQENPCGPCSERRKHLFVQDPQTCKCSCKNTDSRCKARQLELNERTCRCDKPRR

[11] = biological target: T17, platelet-derived growth factor (PDGF)-BB; test: ELISA, HBD peptides
[12] = biological target: T7, fibroblast growth factor (FGF)-2; test: ELISA, HBD peptides

| Binder | binding result (laminin-211) | binding result (laminin-332) | binding result (laminin-521) | binding result (laminin-421) | binding result (laminin-411) | binding result (laminin-511) | binding result (laminin-111) | binding result [10] | binding result [11] | binding result [12] | further results |
| --- | --- | --- | --- | --- | --- | --- | --- | --- | --- | --- | --- |
| TLFLAHGRLVYMFNVGHKKLKIR (Chemically synthesized (Genscript)) [laminin α4 1521-1543 peptide (LG4)] |  |  |  |  |  |  |  |  |  |  | binding result [1]: binds; binding result [2]: binds; binding result [3]: binds; binding result [4]: no binding (tested: 1 µg/mL); binding result [5]: no binding (tested: 1 µg/mL); binding result [6]: binds; binding result [7]: binds; binding result [8]: binds |
| B1 | no binding (tested: A450 0.1) | no binding (tested: A450 0.1) | no binding (tested: A450 0.1) | no binding (tested: A450 0.1) | no binding (tested: A450 0.1) | no binding (tested: A450 0.1) | no binding (tested: A450 0.1) |  |  |  |  |
| B2 | no binding (tested: A450 0.1) | no binding (tested: A450 0.1) | no binding (tested: A450 0.1) | no binding (tested: A450 0.1) | no binding (tested: A450 0.1) | no binding (tested: A450 0.1) | no binding (tested: A450 0.1) |  |  |  | binding result (human plasma-derived vWF): no binding |
| RLVFALGTDGKKLRIKSKEKCNDGK (Chemically synthesized (Genscript)) [laminin α3 3043-3067 peptide (LG4)] |  |  |  |  |  |  |  |  |  |  | binding result [1]: binds; binding result [2]: binds; binding result [9]: binds; binding result [3]: binds; binding result [4]: no binding (tested: 1 µg/mL); binding result [5]: no binding (tested: 1 µg/mL); binding result [6]: binds; binding result [7]: binds; binding result [8]: binds |
| B3 |  |  |  |  |  |  |  | no binding | no binding | no binding |  |
| B4 |  |  |  |  |  |  |  | no binding | no binding | no binding |  |
| B5 |  |  |  |  |  |  |  | no binding | no binding | no binding |  |
| B6 |  |  |  |  |  |  |  | no binding | no binding | no binding |  |
| B7 |  |  |  |  |  |  |  | no binding | no binding | no binding |  |
| B8 | no binding (tested: A450 0.1) | no binding (tested: A450 0.1) | no binding (tested: A450 0.1) | no binding (tested: A450 0.1) | no binding (tested: A450 0.1) | no binding (tested: A450 0.1) | no binding (tested: A450 0.1) |  |  |  | binding result (human plasma-derived vWF): no binding |
